Results on 41 sequences are retold here after the nanobody polyreactivity screen of Harvey et al. (2022).

This data set can be described thus: yeast display, Sf9 membrane polyspecificity reagent, FACS + sequencing; frameworks hold sequencing errors. The method, boiled down: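 Sorting gates, low and high (top ~1%), were placed on anti-HA fluorescence to track expression and on streptavidin fluorescence to track reagent binding. A clone's polyreactivity label is taken from the gate it came out of. The reagent was 10% biotinylated, detergent-solubilized Sf9 membrane, applied for 1 hour at 4 °C to galactose-induced yeast display cells.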
Take “QVQLVESGGGLVQAGGSLRLSCAASGRIFVGYAMGWYRQAPGKERELVAAINRSGSSTYYADSVKGRFTISRDNAKNTVYLQTNSLKPEDTAVYYCAVRPLYDRRYTAVRRYDYWGQGTQVTVSS”: the “polyreactivity (PSR sort gate)” value is on record as “high polyreactivity”.
With “QVQLVESGGGLVQAGGSLRLSCAASGRIFVRYDRGWYRQAPGKERELVAAISSSDGSTYYADSVKGRFTISRDNAKNTVYLQMNSLKPEDTAVYYCNADVSLDDYDYWGQGTQVTVSS”, the “polyreactivity (PSR sort gate)” value was “low polyreactivity”.
In the case of “QVQLVESGGGLVQAGGSLRLSCAASGITFNRYAMGWYRQAPGKERELVARISLRGGNTYYADSVKGRFTISRDNAKNTVYLQMNSLKPEDTAVYYCAVRGRASLRGTRYGYWGQGTQVTVSS”, the “polyreactivity (PSR sort gate)” value is “high polyreactivity”.
Next, “QVQIVESGGGLVQAGGSLRLSCAASGSIFPAYAMGWYRQAPGKEREFVAAISGTGGITYYADSVKGRFTISRDNAKNTVYLQMNSLKPEDTAVYFCAAPVYNRDKHDYDYWGQGTQVTVSS”: “low polyreactivity”; “QDQLVESRGGLVQAGGSLRLRCAASGRIFTRYAMGWYRQAPRKERELVAAITYNGGSTYYADSVKGRFTISRDNAKNTVYLQMNSLKPEDTAVYYCNAVYMSWFGLYAGFDYWGQGTQVTVSS”: “high polyreactivity”.
Next, “QVQLVESGGGLVQAGGTLRLSCSASGRTFFSYAMGWYRQAQGKERELVAAITYSGGRTYYADSVKGRFTISRDNAKNTVYVQMNSLKRDDTAVYYCAGTHYREKMDYWGQGTQLTVSS”: “low polyreactivity”.
As to “QVQHVESGGGLVQAGGSLRLSCAASGITFGDNDMGWYRQAPGKERELVASISSGGSTTYADSVKGRFTISRDNAKNTVYLQMNSLKPEDTAVYYCNADYGSSVEYNYWGQGTKVTVSS”, the “polyreactivity (PSR sort gate)” value is given as “low polyreactivity”.
Take “QVQLVESGGGLVQAGGSLRLSCAASGFIFGYNAMGWYRQAPGKERELVAAISTRGGSTYYADSVKGRFTISRDNAKNTVYLQMNSLKPEDTAVYYCNKVTRVPFDSWGQGTQVTVSS”: the “polyreactivity (PSR sort gate)” value was “high polyreactivity”.
For “QVQLVESGGGLVQAGGSLRLSCAASGSTFGPYAMGWYRQAPGKEVELVAAITASVGSTYYAESVKGRFTISRDNAKNTVYLQMNSLKPEDTAVYYCNADLSYFFGPYWGLYGLDYWGQGTQVTVSS”, the “polyreactivity (PSR sort gate)” value is reported as “low polyreactivity”.
Next, “QVQLQESGGGLVQAGGSQRLSCASSGYIFYFQYMGWYRQAPGKEREFVAAISDGANTNYADSVKGRFTISRDNAKNTEYLQMNSLKPEDTAVYYCNADQYYWYEYDYWGQGTQVTVSS”: “low polyreactivity”.
Next, “QVQLVESGGGLVQAGGSLRLSCAASGSTFYKYAMGWYRQAPGKERELVASISRSGGSTSYADSVKGRFTITRDNAKNTVYLQMNSLKPEDTAVYYCAATWRQHPGSMGYWGQGTQVTVSS”: “high polyreactivity”; “QVQLVESGGGLVQAGGSLRLTCAASGFTLDVNAMGWYRQAPGKERELVATISWGGASTYYADSVKGRFTISRDNAKNTVYLQMNSLKPEDTAVYYCAAQYYYPDDKGGYDYWGQGTQVTVSS”: “low polyreactivity”; “QVQLVESGRGLVQAGGSLRLSCAASGSIFNAYAMGWYRQAPGKERELVADISKRTSYADSVKGRFTISRDNAKNTVYLQMNSLKPEDTADYYCAKEVDEPDGYEYDYWGQGTQVTVSS”: “low polyreactivity”.
For “QVQLVESGGGLVQAGGSLRLSCAASGRTFPFYAMGWYRQAPGKERELVAVITWRGSNTYADSVKGRFTISRDNAKNTVYLQMNSLKPEDTAVYYCSATGGRYIDGYYYWGQGTQVTVSS”, the “polyreactivity (PSR sort gate)” value was “high polyreactivity”.
Next, “QVQLVESAGGLVQAGGSLRLSCAASGNMLIGKVMGMYRQAPGKERELVAAITSGGDTYYADSVKGRYTISRDNAKNTVYLQMNSLKPEDTAVYYCAADRPGQPKYEYWGQCTQVTVSS”: “low polyreactivity”; “QVQLVESGGGLVQAGGSLRLSCAASGSIFLFNAMGWNRQAPGKERELVAANTSSGTRTYYADSVKGRFTISRDNAKNTVYLQMNSMKPEDTAVYYCNAVGPVDSYHRYYYWGQGTQVTVSS”: “low polyreactivity”.
Next, “QVQLVESGGGLVQAGGSLRLSCAASGFTFIQYAMGWYRQAPGKERELVAAISVSGGSTYYADSVKGRFTISRDNAKNTVYLQMNSLKPEDTAVYYCNTVTSGFLSYDYWGQGTQVTVSS”: “high polyreactivity”; “LGQLVESGGGLVQAGGSLRLSCAASGFIFYYYDMGLYRQAPGKESELVATISRGGSRYYADSVKGRFTISRDNAKNTVYLQMNSLKPEDTAVYYCAAYRSFGYRNWNRFDYWGQGTQVTVSS”: “high polyreactivity”; “QVQLVESGGGLVQAGGSLRLSCAASGNIFVFYVMGWYRQAPGNEREFVASFSSTGNTYYADSVKGRFTISRDNAKNTVYLQLNSLKPEDTAVYYCAADSHQNVSGWLRWPRMDYWGQGTQVTVSS”: “low polyreactivity”.
The value for “QVQLVESGGGLVQAGGSLRLSCAASGITFWGYVMGWYRQAPGKERELVAAISSSGGRTYYADSVKGRFTISRDNAKNTVYLQMNSLKPEDTAVYYCAARFLYANRYSVDYDYWGQGTQVTVSS” was “high polyreactivity”.
“QVQLVESGGGLVQAGGSLRLSCAASGRTFRYYAMGWYRQAPGKERELVATISKSGGSTYYADSVKGRFTISRDNAKNTVYLQMNSLKPVDTAVYYCAAVGPYRWYDYWGQGTQVTVSS”: the “polyreactivity (PSR sort gate)” value was “high polyreactivity”.
The value for “QVQLVESGGGLVQAGGSLRLSCAASGRTFRYYAMGWYRQAPGKERELVAAISWNGANTYYADSVKGRFTISRDNAKNTVYLQMNSLKPEDTAVYYCAANYYRWKGYDYWGQGTQVTVSS” was “high polyreactivity”; that for “QVQLVESGGGLVQAGGSLRLSCAASGIIFTYYAMGWYRQAPGKERELVARISSSGGRTYYADSVKGRFTISRDNAKNTVYLQMNSLKPEDTAVYYCNAVTTKSFHRYDYWGQGTQVTVSS” was “high polyreactivity”.
Next, “HVQLVESGGGLVQAGGSLRLSCAASGLTFDVNAMGWYRQAARKERELVAAITADDGSTYYADSVKGRFTISRDNAKNTVYLQMNSLKPEDTAVYYCAADYVNLPYIMDYWGQGTQVTVSS”: “low polyreactivity”; “QVQLVESGGGLVQAGGSLRLSCAASGGTFPWYTKGWYRQAPGKERELVATIRGRDGSTFYADSVKGRFTISRDNAKNTVYLQMNSLKPEDTAVYYCAAVGRRKDLRWGVYYRFDYWGQGTQVTVSS”: “low polyreactivity”.
Next, “QVQLVESGGGLVQAGGSLRLSCAASGNIFVAYAMGWYRQAPGKEREMVAAISSRGGRTYYADSVKGRFTISRDNAKNTVYLQMNSLKPEDTAVYYCATDVGYYRKYEYYYWGQGTQVTVSS”: “high polyreactivity”; “QVQLVESGGGLDQAGGSLRLSCAASGIIFARNAMGWYRQAPGKERELVAAISGSGGRTYYADSVKGRFTISRDNAKNTVYLQMNSLKPEDTAVYYCAAEYTYRAVALDYWGQGTQVTVSS”: “high polyreactivity”.
Take “QVQLVESGGGLVQAGGSLRLSCAASGSIFGKYAMGWYRQAPGKERELVAAISDSGSITYYADSVKGRFTISRDNAKNTVYLQMNSLKPEDTAVYYCAAERYLLWGFEENYWGQGTQVTVSS”: the “polyreactivity (PSR sort gate)” value is recorded as “high polyreactivity”.
“QVQLVESGGGLVQAGGSLRLSCAASGRIFSLNAMGWYRQAPGKERELVAGIRKSGGSTYYADSVKGRFTISRDNAKNTVYLQMNSLKPEDTAVYYCAAQPALTYRFYYWGQGTQVTVSS”: the “polyreactivity (PSR sort gate)” value was “high polyreactivity”.
As for “QVQLVESGGGLVQAGGSLRLSCADSGRIFVRNAMGWYRPAPGKERELVADSTNGGSTNYADSVKGRFTISRDNAKNTVYLQRNSQKPEDTAVYYCAADTLGVYDGDYWGQGTQVTVSS”, the “polyreactivity (PSR sort gate)” value was “low polyreactivity”.
The value for “QVQLVETGGVLVQAGGSLRLSCAASGRTFVYNAMGWYRHAPGKEREFVAAIDGGTGSTYYADSVKGRFTISRDNAKNTVYLQMNSLKPEDTAVYYCAVETYGGGYPVTYDYWGQGTQVTVSS” was “low polyreactivity”.
Take “QVQLVESGGGLVQAGGSLRLSCAASGSTFVRNGMGWYRKAPGKERELVAAITRGGSTYYADSVKGRFTISRDNAKNTVYLQMNSLKPEDTAVYYSAKRYRGGYYYPYNYWGLGTQVTVSS”: the “polyreactivity (PSR sort gate)” value is “high polyreactivity”.
As for “QVHHVESGGGLVQAGGSLRLSCAASGGTFYYNAMGWYRQAPGKERELVAAIDGSGGTTYYADSVKGRFTISRDNAKNTVYLQMNSLKPEDTAVYYCAAAGSPSVYGYGYWGQGTQVTVSS”, the “polyreactivity (PSR sort gate)” value is “low polyreactivity”.
The value for “QVQLVESGGGLVQAGGSLRLSCAASGLILGSYAMGWYRQAPGKERELVAGISWSGGDTYYADSVKGRFTISRDNAKNTVYLQMNSLKPEDTAVYYCNTGGTFLDWVRRPFGFGYWGQGTQVTVSS” was “low polyreactivity”; that for “QVQLVESWGGLVQAGGSLRLSCAASGSTFVKNAMGWYRQAPGKERELVAAISYRGGRTYYADSVKGRYTISRDNAKNTVYLQMNSLKPEDTAVYYCNARYRTPSFIRMGYWGQGTQVTVSS” was “high polyreactivity”.
For “QVQLLESGGGLVQAGGSLRLSFAASGSTSRKYAMGLYRQAPGKERVLVAGITKGGGGTYYADSVKGRFTISRDNAKNTVYLLMNSLKPEDTAVYYCAKYYGSGYYIYDYWGLGTQVTVSS”, the “polyreactivity (PSR sort gate)” value is “low polyreactivity”.
Next, “QVQLVESGGGLVQAGGSLRLSCAASGSNFNNNAMGWYRQAPGKERELVASISLSAGSTYYADSVKGRFTISRDNAKNTVYLQMNSLKPEDTAVYYCAAEVGYWGYQISGDYWGQGTQVTVSS”: “low polyreactivity”; “QVQLVESGGGLVQAGGSLRLSCAASGSTFTLYAMGWSRQAPGKERELVAAISRSGGRTYYADSVKGRFTISRDNAKNTVYLQMNSLKPEDTAVYYCNAPYKQDYDYWGQGTQVTVSS”: “high polyreactivity”.
The value for “QVQLVESGGGLVQAGGSLRLSCAASGSNFWAYTMGWYRQAPGKERELVAVITDSTGSTYYADSVKGRFTISRDNAMNTVFLQMNSLKPEDTAVYYCAARLWIGYLKYDYWGQGTQVTVSS” was “high polyreactivity”.
Next, “QVQLVESGGGLVQAGGSLRLSCAASGRIFHGYAMGWYRQAPGKERELVAVIRSGVNTNYADSVKGRFTISRDNAKNTVYLQMNSLKPEDTAVYYCAVDYTPEDWGDDYWGQGTQVTVSS”: “low polyreactivity”; “QVQLVESGGGLVQAGGSLRLSCAASGRTFRDYVMGWYRPAPGKERELVAAISTRGASTYYADSVKGRFTISRDNAKNTVYLQMNSLKPEDTAVYYCAARSTRRGNEYDYWGQGTQVTVSS”: “high polyreactivity”.
